Data on four molecules can be found in patent US20180355061A1 (Janssen / Centocor, published 2018).

The target of test [1] is T1, human PD-1 expressed on cells (human, UniProt Q15116 25-288). Nature of the test: cell-based or functional assay.
Test [2] has as its target T2, human PD-1 (soluble analyte in SPR) (human, UniProt Q15116 25-170, limits assumed).
T2 construct: also called CD279; PDCD1
Nature of the test: SPR (ProteOn XPR36), mAb captured on anti-human IgG Fc, PD-1 as analyte, 25 C. As for the experimental part:
(§1) Affinity measurements were performed using a ProteOn XPR36 system (BioRad). […] Approximately 5000 RU (response units) of mAbs were immobilized. The kinetic experiments were performed at 25° C. in running buffer (DPBS+0.01% P20+100 μg/mL BSA). To perform kinetic experiments, 200 RU of mAbs were captured followed by injections of analytes (human and cyno PD-1) at concentrations ranging from 1.563 nM to 400 nM (in a […] serial dilution). The association phase was monitored for 3 minutes at 50 μL/min, then followed by 10 or 15 minutes of buffer flow (dissociation phase). The chip surface was regenerated with two 18 second pulses of 100 mM H₃PO₄ (Sigma, Cat #7961) at 100 μL/min.
(§2) The collected data were processed using ProteOn Manager software. First, the data was corrected for background using inter-spots. Then, double reference subtraction of the data was performed by using the buffer injection for analyte injections. The kinetic analysis of the data was performed using a Langmuir 1:1 binding model. The result for each mAb was reported in the format of ka (On-rate), kd (Off-rate) and KD (equilibrium dissociation constant).
Affinity of the parental and humanized antibodies to PD-1 was measured using SPR as described in Example 1.

Test [3] has as its target T1, human PD-1 expressed on cells. The experiment in a line: cell-based or functional assay. This is another data set of the same source.
For test [4], the target named is T2, human PD-1 (soluble analyte in SPR). Nature of the test: SPR (ProteOn XPR36), mAb captured on anti-human IgG Fc, human PD-1 as analyte, 25 C. The method, then:
as §1, §2
(§3) Affinity of the antibodies to human and cyno PD-1 was measured using SPR as described in Example 1.

The target of test [5] is T3, cyno PD-1 (soluble analyte in SPR) (cyno).
T3 construct: also called cynomolgus PD-1
Nature of the test: SPR (ProteOn XPR36), mAb captured on anti-human IgG Fc, cyno PD-1 as analyte, 25 C. As for the experimental part: as §1, §2, §3

T2 sequence (Q15116 25-170 limits assumed): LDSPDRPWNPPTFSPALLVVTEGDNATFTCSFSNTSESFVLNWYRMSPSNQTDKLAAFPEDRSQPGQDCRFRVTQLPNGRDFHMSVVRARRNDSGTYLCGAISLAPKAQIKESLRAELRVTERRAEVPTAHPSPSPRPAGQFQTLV
T1 sequence (Q15116 25-288 limits assumed): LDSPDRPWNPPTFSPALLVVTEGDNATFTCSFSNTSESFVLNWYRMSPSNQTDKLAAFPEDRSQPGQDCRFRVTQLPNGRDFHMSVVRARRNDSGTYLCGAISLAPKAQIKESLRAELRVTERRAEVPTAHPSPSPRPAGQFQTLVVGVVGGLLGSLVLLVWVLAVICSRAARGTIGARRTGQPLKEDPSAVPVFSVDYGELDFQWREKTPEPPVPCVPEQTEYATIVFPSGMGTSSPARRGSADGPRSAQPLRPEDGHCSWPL

B1: PD1B878 (antibody, human IgG1, kappa, V domains shown)
VH: QVQLVQSGSELKKPGASVKVSCKASGYTFTDYSMHWVRQAPGQGLEWMGWINIETGEPTYAQGFTGRFVFSLDTSVSTAYLQISSLKAEDTAVYFCARDYYGTYFYAMDYWGQGTLVTVSS
VL: EIVLTQSPATLSLSPGERATLSCTASSSVSSSYLHWYQQKPGLAPRLLIYSTSNLASGIPDRFSGSGSGTDYTLTISRLEPEDFAVYYCHQYHRSPLTFGQGTKLEIKR
notes: C84S variant of PD1B743, IgG1; also called VH PD1H405; VL PD1L469
In the case of B1, in test [1], the “% inhibition of activated T cells, CMV-PBMC assay, donor D1” value turned out to be 78.3%. In test [2], this molecule registered a Kd of 58.9 nM, a koff of 0.00351 s⁻¹ and a kon of 59800 M⁻¹ s⁻¹.

B2: PD1B1086 (antibody, human IgG1, kappa, V domains shown)
VH: QVQLVQSGSELKKPGASVKVSCKASGYTFTDYSMHWVRQAPGQGLEWMGWINIETGHPTYAQGFTGRFVFSLDTSVSTAYLQISSLKAEDTAVYFCARDYYGTYFYAMDYWGQGTLVTVSS
VL: EIVLTQSPATLSLSPGERATLSCTASSSVSSSYLHWYQQKPGLAPRLLIYSTSNLASGIPDRFSGSGSGTDYTLTISRLEPEDFAVYYCHQYHRSPLTFGQGTKLEIKR
notes: also called VH PD1H586; VL PD1L469
Consider B2, for which the “Mean % inhibition across two donors, CMV-PBMC assay” value (shortened to “Mean % inhibition across two donors”) in test [3] turned out to be 72.7%. Besides, in test [4], binding was put at a Kd of 3.19 nM, the dissociation rate constant (koff) was 0.000394 s⁻¹ and the kon turned out to be 124000 M⁻¹ s⁻¹. In test [5], this molecule yielded a Kd of 31.8 nM, a koff of 0.00544 s⁻¹ and an on-rate constant (kon) of 171000 M⁻¹ s⁻¹.

B3: PD1B1094 (antibody, human IgG1, kappa, V domains shown)
VH: QVQLVQSGSELKKPGASVKVSCKASGYTFTDYSMHWVRQAPGQGLEWMGWINIETGHPTYAQGFTGRFVFSLDTSVSTAYLQISSLKAEDTAVYFCARDYYGTYFYAMDYWGQGTLVTVSS
VL: EIVLTQSPATLSLSPGERATLSCTASSSVPSSYLHWYQQKPGLAPRLLIYSTSNLASGIPDRFSGSGSGTDYTLTISRLEPEDFAVYYCHQYHRSPLTFGQGTKLEIKR
notes: also called VH PD1H586; VL PD1L652
On to B3, for which the “Mean % inhibition across two donors” value in test [3] turned out to be 77.9%. Further, in test [4], the affinity, expressed as Kd, was 0.871 nM; the koff is 9.16e-05 s⁻¹; the association rate constant (kon) turned out to be 105000 M⁻¹ s⁻¹. In test [5], this molecule had a dissociation constant Kd of 12 nM, a koff of 0.00162 s⁻¹ and a kon of 135000 M⁻¹ s⁻¹.

B4: PD1B1090 (antibody, human IgG1, kappa, V domains shown)
VH: QVQLVQSGSELKKPGASVKVSCKASGYTFTDYSMHWVRQAPGQGLEWMGWINIETGYPTYAQGFTGRFVFSLDTSVSTAYLQISSLKAEDTAVYFCARDYYGTYFYAMDYWGQGTLVTVSS
VL: EIVLTQSPATLSLSPGERATLSCTASSSFSSSYLHWYQQKPGLAPRLLIYSTSNLASGIPDRFSGSGSGTDYTLTISRLEPEDFAVYYCHQYHRSPLTFGQGTKLEIKR
notes: also called VH PD1H585; VL PD1L651
Take B4: the “Mean % inhibition across two donors” value in test [3] was 74.8%. In test [4], this molecule had a Kd of 0.223 nM, a koff of 2.37e-05 s⁻¹ and a kon of 106000 M⁻¹ s⁻¹. Further, in test [5], binding was characterised by a dissociation constant (Kd) of 1.43 nM, the koff was found to be 0.000185 s⁻¹ and the kon turned out to be 130000 M⁻¹ s⁻¹.

Broadly, the Kd is the concentration at which binding is half-saturated. Low values mean a tighter complex, high ones a looser complex. The koff is the rate constant with which the complex falls apart. A low value points to slow dissociation. As a reminder, the kon is the second-order rate constant of association. Read a low kon as slower complex formation.
